Reference: IntAct's records for PubMed 26258305

B1: Protein TIFY 7 (Arabidopsis thaliana (Mouse-ear cress)), Q8W4J8 (parent)
chain: MERDFLGLSDKQYLSNNVKHEVNDDAVEERGLSTKAAREWGKSKVFATSSFMPSSDFQEAKAFPGAYQWGSVSAANVFRRCQFGGAFQNATPLLLGGSVPLPTHPSLVPRVASSGSSPQLTIFYGGTISVFNDISPDKAQAIMLCAGNGLKGETGDSKPVREAERMYGKQIHNTAATSSSSATHTDNFSRCRDTPVAATNAMSMIESFNAAPRNMIPSVPQARKASLARFLEKRKERLMSAMPYKKMLLDLSTGESSGMNYSSTSPT
B2: Protein TIFY 7 (Arabidopsis thaliana (Mouse-ear cress)), Q8W4J8 (parent)
chain: B1 chain
partner: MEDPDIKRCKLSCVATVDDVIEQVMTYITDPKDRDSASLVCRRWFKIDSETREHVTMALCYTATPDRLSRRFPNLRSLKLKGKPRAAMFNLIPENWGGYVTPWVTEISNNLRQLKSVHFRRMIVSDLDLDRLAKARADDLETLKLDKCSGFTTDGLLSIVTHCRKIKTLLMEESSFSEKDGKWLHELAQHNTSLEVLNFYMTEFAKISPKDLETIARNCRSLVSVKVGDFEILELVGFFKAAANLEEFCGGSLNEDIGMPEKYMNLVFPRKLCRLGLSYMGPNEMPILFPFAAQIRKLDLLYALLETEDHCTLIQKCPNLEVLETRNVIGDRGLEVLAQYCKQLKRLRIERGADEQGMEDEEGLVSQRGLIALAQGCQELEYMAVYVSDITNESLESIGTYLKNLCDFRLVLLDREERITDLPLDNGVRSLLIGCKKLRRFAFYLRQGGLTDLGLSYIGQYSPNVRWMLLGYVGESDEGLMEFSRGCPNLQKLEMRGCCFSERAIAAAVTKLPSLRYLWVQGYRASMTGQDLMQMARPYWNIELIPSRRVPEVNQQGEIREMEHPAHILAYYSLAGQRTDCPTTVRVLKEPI

Experiments:
myc3_arath MYC3, Q9FIP9 = variants of: B1; details: with myc3_arath MYC3, Q9FIP9
Sequence of myc3_arath MYC3, Q9FIP9 (Q9FIP9 whole entry): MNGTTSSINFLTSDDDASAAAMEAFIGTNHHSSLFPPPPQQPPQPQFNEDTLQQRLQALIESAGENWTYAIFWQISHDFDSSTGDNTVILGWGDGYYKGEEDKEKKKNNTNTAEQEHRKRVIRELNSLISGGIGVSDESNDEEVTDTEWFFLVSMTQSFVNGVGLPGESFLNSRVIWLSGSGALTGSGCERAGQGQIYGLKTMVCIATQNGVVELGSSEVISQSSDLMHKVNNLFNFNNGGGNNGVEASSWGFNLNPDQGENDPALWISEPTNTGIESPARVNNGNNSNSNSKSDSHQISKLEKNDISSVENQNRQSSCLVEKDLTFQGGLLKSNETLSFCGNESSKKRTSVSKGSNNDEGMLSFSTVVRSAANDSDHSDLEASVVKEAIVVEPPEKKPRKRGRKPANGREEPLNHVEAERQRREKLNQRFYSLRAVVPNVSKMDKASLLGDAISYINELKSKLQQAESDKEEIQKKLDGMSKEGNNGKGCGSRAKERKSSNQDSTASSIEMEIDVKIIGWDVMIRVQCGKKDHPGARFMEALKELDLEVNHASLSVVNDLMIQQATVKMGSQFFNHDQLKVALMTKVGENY

myc2_arath MYC2, Q39204 = variants of: B1; details: with myc2_arath MYC2, Q39204
Sequence of myc2_arath MYC2, Q39204 (Q39204 whole entry): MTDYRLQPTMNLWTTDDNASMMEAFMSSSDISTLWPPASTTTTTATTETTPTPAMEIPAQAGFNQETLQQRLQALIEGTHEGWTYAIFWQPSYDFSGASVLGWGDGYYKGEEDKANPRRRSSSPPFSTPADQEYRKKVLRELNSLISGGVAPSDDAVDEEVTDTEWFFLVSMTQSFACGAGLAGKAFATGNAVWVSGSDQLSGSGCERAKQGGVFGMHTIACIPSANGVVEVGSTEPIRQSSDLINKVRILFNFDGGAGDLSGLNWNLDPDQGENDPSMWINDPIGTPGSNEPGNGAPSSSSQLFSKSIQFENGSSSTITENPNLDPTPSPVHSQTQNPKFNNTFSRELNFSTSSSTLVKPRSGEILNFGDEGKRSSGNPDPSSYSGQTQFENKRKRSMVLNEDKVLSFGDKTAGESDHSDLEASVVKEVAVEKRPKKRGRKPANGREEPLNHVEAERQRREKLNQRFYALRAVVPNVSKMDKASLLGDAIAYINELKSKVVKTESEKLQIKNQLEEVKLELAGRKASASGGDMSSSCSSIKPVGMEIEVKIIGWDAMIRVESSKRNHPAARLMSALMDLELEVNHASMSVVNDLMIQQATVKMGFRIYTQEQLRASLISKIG

myc4_arath MYC4, O49687 = variants of: B1; details: with myc4_arath MYC4, O49687
Sequence of myc4_arath MYC4, O49687 (O49687 whole entry): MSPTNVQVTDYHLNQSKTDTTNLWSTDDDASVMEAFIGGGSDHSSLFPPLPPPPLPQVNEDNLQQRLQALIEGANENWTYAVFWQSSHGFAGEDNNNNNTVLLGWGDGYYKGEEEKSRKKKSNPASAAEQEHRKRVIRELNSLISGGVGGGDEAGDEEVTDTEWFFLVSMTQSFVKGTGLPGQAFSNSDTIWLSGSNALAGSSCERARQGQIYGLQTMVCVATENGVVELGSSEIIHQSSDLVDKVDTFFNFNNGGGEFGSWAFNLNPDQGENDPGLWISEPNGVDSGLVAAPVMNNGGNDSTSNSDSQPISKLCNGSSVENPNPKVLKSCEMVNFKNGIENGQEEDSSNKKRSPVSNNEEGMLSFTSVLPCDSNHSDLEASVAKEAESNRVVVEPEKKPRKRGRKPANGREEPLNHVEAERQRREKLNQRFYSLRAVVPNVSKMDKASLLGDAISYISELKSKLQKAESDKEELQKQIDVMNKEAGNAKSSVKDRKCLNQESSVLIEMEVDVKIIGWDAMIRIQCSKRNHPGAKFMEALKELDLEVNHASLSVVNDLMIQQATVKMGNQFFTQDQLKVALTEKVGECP

coi1_arath COI1, O04197 = variants of: B2; details: with coi1_arath COI1, O04197

| effect of a mutation on the interaction (myc3_arath MYC3, Q9FIP9) | effect of a mutation on the interaction (myc2_arath MYC2, Q39204) | effect of a mutation on the interaction (myc4_arath MYC4, O49687) | effect of a mutation on the interaction (coi1_arath COI1, O04197) | Variant |
| --- | --- | --- | --- | --- |
| disrupting interaction strength | disrupting interaction strength | disrupting interaction strength | – | R234A |
| disrupting interaction strength | decreasing interaction strength | decreasing interaction strength | – | L231A |
| – | – | – | decreasing interaction strength | L231A |
| – | – | – | disrupting interaction strength | R234A |

Further lines, the variant ahead of its results:

| Variant | effect of a mutation on the interaction (myc3_arath MYC3, Q9FIP9) | effect of a mutation on the interaction (myc2_arath MYC2, Q39204) | effect of a mutation on the interaction (myc4_arath MYC4, O49687) | effect of a mutation on the interaction (coi1_arath COI1, O04197) |
| --- | --- | --- | --- | --- |
| L227A | disrupting interaction strength | disrupting interaction strength | disrupting interaction strength | – |
| F230A | disrupting interaction strength | disrupting interaction strength | disrupting interaction strength | – |
| R223A;K224A | – | – | – | disrupting interaction strength |
| S218A;V219A;P220A;Q221A | – | – | – | disrupting interaction strength |
| F230A | – | – | – | disrupting interaction strength |
